Measured values: patent publication US7053179 (WHITEHEAD INSTITUTE FOR BIOMEDICAL RESEARCH, dated 2006)

Biological target: gp160 (precursor protein to gp120/gp41) expressed on CHO cells (HIV (strain ))
Assay: cell-based or functional assay

GGHTTWMEWDREINNYTSLIHSLIEESQNQQEKNEQELLGGHHHHHH [His-tagged C-peptide C37-H6]
IC50 in the cell-cell fusion assay: ~1 nM
